Assay results published in patent US20230087785A1, “Leucine-Rich Repeat Kinase 2 Allosteric Modulators” (VIB VZW, priority 2020, published 2023).
Residue numbers refer to the chain shown, from its start. Blank lines part the entries; values can stand above or below the binder they belong to.

Legend:
[1] = target: T1, LRRK2 Roc domain construct (human, UniProt Q5S007 1329-1520); assay: ELISA, antigen coated on the plate, purified Nb detected via its EPEA tag
T1 construct: not shown: N-terminal His6-tag of pET-28a
T1 sequence: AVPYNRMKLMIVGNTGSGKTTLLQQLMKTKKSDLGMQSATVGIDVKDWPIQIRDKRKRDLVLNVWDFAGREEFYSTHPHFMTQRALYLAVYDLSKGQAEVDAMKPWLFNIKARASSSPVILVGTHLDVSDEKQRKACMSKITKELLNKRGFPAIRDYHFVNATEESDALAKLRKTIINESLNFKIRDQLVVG
Source text: (§1) We recombinantly expressed and purified the RocCOR, Roc, COR-B and kinase-WD40 (K-WD40) domain constructs of LRRK2 (FIG. 7). Subsequently, we performed an ELISA in which all these domain constructs were coated in parallel next to each other in the same ELISA plate, and where we subsequently detected binding of the 42 purified Nbs. […] To enrich in Nbs directed against the Roc domain we specifically included a selection step with either Roc-GTPγS or Roc-GDP.

[2] = target: T2, LRRK2 kinase-WD40 domain construct (human, UniProt Q5S007 1876-2527); assay: as above
T2 construct: also called K-WD40; not shown: N-terminal His-tag (pFastBac)
T2 sequence: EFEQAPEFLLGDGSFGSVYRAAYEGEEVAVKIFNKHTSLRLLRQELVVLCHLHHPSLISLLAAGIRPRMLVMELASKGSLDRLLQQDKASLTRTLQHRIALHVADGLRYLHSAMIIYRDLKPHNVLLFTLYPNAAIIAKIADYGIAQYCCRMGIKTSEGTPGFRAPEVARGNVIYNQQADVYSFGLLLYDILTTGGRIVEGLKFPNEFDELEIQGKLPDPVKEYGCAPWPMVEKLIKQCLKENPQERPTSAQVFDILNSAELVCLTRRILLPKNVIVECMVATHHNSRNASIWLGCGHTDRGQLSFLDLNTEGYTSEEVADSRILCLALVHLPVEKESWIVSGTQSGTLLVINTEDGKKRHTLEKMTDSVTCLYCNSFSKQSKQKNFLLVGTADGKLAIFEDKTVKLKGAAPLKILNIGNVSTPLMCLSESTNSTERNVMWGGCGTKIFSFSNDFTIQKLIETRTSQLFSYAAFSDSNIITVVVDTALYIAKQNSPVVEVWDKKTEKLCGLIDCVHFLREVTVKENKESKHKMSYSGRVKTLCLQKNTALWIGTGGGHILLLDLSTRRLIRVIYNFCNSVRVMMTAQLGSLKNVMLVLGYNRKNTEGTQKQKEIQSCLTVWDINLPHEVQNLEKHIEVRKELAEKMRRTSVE
Source text: as §1

[3] = target: T3, LRRK2 COR-B construct (C-terminal part of the COR domain), His6-MBP tagged (human, UniProt Q5S007 1672-1840); assay: as above
T3 construct: also called (MBP-)COR-B; not shown: N-terminal His6-MBP-tag of pDEST-566
Source text: as §1

[4] = target: T4, LRRK2 RocCOR domain construct (human, UniProt Q5S007 1334-1840); assay: as above
T4 construct: A second construct (residues 1293-1840, N-terminal His6-MBP) was used in certain screening experiments; not shown: N-terminal Twin-Strep-tag; C-terminal His10-tag
T4 sequence: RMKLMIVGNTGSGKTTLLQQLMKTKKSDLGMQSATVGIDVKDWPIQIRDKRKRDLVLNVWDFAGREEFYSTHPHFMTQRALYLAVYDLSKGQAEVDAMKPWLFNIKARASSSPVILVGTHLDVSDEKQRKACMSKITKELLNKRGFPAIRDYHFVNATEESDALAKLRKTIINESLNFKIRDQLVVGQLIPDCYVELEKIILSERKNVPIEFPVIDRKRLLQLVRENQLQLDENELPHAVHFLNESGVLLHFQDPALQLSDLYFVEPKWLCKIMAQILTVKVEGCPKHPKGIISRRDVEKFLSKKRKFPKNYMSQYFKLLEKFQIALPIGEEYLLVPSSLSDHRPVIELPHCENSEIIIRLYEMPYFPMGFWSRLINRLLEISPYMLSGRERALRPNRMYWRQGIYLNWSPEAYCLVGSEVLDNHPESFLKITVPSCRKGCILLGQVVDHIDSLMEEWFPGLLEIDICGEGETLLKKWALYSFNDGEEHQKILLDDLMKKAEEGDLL
Source text: as §1

[5] = target: T5, Full-length human Leucine-rich repeat kinase 2 (LRRK2), N-terminal Strep/Flag (SF) tagged (human, UniProt Q5S007 1-2527); assay: MST; LRRK2 titrated to m-TAMRA-labelled Nb, 500 µM GDP
T5 construct: Purified from HEK293T cells in presence of GDP or GTPγS; also called FL LRRK2; FL-LRRK2
Procedure: Microscale thermophoresis (MST) experiments were performed for determining equilibrium binding affinities (KD) of Nbs binding to FL-LRRK2. Therefore, Nb were site-specifically labelled at their C-terminus with m-TAMRA, using Sortase-mediated peptide exchange. The Nbs were recloned into a pHEN29 vector which is subsequently used to express and purify the Nbs with a C-terminal LPETGG-His₆-EPEA tag. Exchange of the latter peptide with an m-TAMRA-labeled GGGYK peptide (GenicBio, Shanghai, China) was performed using Sortase, and unlabeled Nb and unincorporated peptide were removed using a Ni-NTA and SEC purification step, respectively. […] After incubation at 4° C. for 30 mins, samples were loaded in capillaries and measurements were performed at 25° C. using 50-70% LED power and 80% laser intensity (laser on-time: 30 s, laser off-time: 5 s). All experiments were performed in triplicate.

[6] = target: T5, Full-length human Leucine-rich repeat …; assay: BLI; Nb on LRRK2 trapped on streptavidin sensor via biotinylated Nb40; steady-state fit
Procedure: To determine the binding affinity (dissociation constant KD) of the ten Nbs for LRRK2, two methods were used in parallel: microscale thermophoresis (MST) and bio-layer interferometry (BLI). For the MST experiment, we site-specifically labeled the ten Nbs with a m-TAM RA fluorophore at its C-terminus, using sortase-mediated coupling, and then titrated increasing amounts of full-length LRRK2 to these Nbs (FIGS. 13A-13E).
Biolayer interferometry (BLI) measurements were performed using an Octet Red96 (Forte Bio, Inc.) system in a buffer containing 50 mM HEPES pH 8.0, 150 mM NaCl, 10 mM MgCl₂, 5% glycerol, 0.1% BSA, 0.05% Tween, at 25° C. and with shaking speed 1000 rpm. […] The biotinylated Nbs were first loaded on pre-equilibrated SA biosensors at a concentration of 5 μg/mL. This Nb-loaded sensor was then used to trap FL-LRRK2 from a 50 nM LRRK2 solution. […] All experiments were performed in triplicate.

[7] = target: T6, endogenous mouse LRRK2 (RAW264.7 cells) (mouse, UniProt Q5S006 1-2527); assay: immunofluorescence colocalisation of GFP-Nb and LRRK2 in RAW264.7 cells
T6 construct: also called endogenous LRRK2
Source text: To test whether Nbs can trace and visualize endogenous LRRK2 in fixed cells, we generated green fluorescent protein (GFP)-Nb fusions (fluobodies) as described before. Recently, it was shown that LRRK2 is recruited to phagosomes upon induction of phagocytosis in immune cells. Therefore, RAW264.7 cells were transfected with these fluobodies and treated with killed yeast bioparticles “zymosan” to induce phagocytosis.
RAW264.7 cells (ATCC® SC-6003™) were transfected with peGFP-Nb constructs using JetOPTIMUS (Polyplus transfection) for 24 hrs and then stimulated with Zymosan particles (Sigma Aldrich) for 30 mins ([…]). Immunostaining for LRRK2 was performed as reported before. Briefly, cells fixed with 4% (w/v) paraformaldehyde for 30 min, followed by treatment with 100% EtOH at −20° C. Sampled were permeabilized with PBS/0.5% Triton X-100 and blocked with 3% BSA. Primary antibodies (rabbit anti-LRRK2, c41-2, Abcam and mouse anti-GFP, G6539, Sigma Aldrich) were diluted in PBS containing 3% BSA and 0.5% Triton X-100 and incubated overnight at 4° C. […] Cells were washed twice with 1×PBS and mounted with Fluroshield antifade reagent with DAPI (SigmaAldrich). Images were acquired on Zeiss LSM800 confocal laser scanning microscope. Image analysis of z-scan was done using the Zeiss microscope software ZEN.

[8] = target: T1, LRRK2 Roc domain construct; assay: ELISA, purified Nb on coated domain constructs
Source text: as §1

[9] = target: T3, LRRK2 COR-B construct (C-terminal part …); assay: ELISA, purified Nb on coated domain constructs
Source text: as §1

[10] = target: T2, LRRK2 kinase-WD40 domain construct; assay: ELISA, purified Nb on coated domain constructs
Source text: as §1

[11] = target: T4, LRRK2 RocCOR domain construct; assay: ELISA, purified Nb on coated domain constructs
Source text: as §1

T5 sequence (Q5S007 other isoform, or with tags, fused parts or gaps limits assumed): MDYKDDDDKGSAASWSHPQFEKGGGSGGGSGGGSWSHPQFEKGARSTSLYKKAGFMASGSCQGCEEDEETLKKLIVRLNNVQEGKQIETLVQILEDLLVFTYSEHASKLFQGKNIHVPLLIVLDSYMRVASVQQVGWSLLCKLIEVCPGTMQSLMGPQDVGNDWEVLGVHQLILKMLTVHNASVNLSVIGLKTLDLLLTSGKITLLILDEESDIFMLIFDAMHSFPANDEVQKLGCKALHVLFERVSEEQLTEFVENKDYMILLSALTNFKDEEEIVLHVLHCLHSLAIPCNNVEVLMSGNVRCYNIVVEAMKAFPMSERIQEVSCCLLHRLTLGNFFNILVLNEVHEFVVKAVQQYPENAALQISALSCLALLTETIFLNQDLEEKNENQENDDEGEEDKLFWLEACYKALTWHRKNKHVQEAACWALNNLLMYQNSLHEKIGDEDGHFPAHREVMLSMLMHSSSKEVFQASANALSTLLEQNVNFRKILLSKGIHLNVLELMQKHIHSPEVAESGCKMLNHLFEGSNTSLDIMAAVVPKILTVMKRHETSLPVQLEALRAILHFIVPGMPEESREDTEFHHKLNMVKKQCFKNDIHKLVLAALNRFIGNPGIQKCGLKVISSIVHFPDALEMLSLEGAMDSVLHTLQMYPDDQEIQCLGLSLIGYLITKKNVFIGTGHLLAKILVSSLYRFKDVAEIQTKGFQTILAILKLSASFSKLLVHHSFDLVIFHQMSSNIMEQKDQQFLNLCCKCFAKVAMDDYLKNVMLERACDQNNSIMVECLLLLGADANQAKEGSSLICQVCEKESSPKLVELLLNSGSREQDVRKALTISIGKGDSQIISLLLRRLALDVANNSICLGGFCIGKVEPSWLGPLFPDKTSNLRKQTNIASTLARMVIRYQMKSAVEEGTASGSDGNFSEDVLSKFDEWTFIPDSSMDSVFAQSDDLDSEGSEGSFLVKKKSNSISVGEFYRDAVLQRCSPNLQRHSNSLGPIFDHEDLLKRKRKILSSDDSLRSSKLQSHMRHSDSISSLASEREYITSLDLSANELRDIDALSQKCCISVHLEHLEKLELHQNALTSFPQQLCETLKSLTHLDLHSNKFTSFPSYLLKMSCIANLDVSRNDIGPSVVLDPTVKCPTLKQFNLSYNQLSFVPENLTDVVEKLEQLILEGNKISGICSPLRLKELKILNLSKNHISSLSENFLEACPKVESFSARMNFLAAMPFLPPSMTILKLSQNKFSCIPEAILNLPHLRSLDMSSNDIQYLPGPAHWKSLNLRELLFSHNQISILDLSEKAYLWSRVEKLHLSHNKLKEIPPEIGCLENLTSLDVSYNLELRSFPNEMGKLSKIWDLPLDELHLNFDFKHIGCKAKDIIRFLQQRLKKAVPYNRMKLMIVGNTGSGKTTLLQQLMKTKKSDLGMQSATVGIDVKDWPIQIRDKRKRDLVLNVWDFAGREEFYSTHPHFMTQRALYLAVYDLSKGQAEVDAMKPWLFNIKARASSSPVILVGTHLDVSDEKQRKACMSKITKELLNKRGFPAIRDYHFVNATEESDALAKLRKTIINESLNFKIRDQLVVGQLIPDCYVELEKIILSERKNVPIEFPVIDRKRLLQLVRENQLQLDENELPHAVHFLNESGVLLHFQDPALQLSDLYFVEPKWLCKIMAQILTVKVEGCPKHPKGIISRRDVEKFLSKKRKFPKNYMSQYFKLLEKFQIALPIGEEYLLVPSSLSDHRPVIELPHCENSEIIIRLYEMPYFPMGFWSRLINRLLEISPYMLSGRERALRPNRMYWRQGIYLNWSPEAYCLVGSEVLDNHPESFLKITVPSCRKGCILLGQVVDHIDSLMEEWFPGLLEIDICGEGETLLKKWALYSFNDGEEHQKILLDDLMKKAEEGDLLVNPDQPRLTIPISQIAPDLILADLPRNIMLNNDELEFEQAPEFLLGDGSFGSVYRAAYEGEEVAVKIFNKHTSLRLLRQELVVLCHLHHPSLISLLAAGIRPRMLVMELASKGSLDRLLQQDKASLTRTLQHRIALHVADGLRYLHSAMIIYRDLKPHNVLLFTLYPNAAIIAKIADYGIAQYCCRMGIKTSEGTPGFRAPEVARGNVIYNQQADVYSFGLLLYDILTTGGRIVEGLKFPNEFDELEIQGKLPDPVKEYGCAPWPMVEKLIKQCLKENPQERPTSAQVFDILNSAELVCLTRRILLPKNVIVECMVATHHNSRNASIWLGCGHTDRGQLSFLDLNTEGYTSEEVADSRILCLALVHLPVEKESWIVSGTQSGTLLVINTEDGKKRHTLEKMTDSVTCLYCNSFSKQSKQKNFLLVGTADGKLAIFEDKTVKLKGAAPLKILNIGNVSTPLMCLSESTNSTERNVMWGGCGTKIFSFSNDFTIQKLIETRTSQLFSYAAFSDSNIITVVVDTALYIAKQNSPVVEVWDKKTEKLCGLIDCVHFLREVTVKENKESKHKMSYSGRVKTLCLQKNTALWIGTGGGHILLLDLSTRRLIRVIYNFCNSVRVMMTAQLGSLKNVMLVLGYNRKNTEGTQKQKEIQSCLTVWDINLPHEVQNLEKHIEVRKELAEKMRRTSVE
T6 sequence (Q5S006 whole entry): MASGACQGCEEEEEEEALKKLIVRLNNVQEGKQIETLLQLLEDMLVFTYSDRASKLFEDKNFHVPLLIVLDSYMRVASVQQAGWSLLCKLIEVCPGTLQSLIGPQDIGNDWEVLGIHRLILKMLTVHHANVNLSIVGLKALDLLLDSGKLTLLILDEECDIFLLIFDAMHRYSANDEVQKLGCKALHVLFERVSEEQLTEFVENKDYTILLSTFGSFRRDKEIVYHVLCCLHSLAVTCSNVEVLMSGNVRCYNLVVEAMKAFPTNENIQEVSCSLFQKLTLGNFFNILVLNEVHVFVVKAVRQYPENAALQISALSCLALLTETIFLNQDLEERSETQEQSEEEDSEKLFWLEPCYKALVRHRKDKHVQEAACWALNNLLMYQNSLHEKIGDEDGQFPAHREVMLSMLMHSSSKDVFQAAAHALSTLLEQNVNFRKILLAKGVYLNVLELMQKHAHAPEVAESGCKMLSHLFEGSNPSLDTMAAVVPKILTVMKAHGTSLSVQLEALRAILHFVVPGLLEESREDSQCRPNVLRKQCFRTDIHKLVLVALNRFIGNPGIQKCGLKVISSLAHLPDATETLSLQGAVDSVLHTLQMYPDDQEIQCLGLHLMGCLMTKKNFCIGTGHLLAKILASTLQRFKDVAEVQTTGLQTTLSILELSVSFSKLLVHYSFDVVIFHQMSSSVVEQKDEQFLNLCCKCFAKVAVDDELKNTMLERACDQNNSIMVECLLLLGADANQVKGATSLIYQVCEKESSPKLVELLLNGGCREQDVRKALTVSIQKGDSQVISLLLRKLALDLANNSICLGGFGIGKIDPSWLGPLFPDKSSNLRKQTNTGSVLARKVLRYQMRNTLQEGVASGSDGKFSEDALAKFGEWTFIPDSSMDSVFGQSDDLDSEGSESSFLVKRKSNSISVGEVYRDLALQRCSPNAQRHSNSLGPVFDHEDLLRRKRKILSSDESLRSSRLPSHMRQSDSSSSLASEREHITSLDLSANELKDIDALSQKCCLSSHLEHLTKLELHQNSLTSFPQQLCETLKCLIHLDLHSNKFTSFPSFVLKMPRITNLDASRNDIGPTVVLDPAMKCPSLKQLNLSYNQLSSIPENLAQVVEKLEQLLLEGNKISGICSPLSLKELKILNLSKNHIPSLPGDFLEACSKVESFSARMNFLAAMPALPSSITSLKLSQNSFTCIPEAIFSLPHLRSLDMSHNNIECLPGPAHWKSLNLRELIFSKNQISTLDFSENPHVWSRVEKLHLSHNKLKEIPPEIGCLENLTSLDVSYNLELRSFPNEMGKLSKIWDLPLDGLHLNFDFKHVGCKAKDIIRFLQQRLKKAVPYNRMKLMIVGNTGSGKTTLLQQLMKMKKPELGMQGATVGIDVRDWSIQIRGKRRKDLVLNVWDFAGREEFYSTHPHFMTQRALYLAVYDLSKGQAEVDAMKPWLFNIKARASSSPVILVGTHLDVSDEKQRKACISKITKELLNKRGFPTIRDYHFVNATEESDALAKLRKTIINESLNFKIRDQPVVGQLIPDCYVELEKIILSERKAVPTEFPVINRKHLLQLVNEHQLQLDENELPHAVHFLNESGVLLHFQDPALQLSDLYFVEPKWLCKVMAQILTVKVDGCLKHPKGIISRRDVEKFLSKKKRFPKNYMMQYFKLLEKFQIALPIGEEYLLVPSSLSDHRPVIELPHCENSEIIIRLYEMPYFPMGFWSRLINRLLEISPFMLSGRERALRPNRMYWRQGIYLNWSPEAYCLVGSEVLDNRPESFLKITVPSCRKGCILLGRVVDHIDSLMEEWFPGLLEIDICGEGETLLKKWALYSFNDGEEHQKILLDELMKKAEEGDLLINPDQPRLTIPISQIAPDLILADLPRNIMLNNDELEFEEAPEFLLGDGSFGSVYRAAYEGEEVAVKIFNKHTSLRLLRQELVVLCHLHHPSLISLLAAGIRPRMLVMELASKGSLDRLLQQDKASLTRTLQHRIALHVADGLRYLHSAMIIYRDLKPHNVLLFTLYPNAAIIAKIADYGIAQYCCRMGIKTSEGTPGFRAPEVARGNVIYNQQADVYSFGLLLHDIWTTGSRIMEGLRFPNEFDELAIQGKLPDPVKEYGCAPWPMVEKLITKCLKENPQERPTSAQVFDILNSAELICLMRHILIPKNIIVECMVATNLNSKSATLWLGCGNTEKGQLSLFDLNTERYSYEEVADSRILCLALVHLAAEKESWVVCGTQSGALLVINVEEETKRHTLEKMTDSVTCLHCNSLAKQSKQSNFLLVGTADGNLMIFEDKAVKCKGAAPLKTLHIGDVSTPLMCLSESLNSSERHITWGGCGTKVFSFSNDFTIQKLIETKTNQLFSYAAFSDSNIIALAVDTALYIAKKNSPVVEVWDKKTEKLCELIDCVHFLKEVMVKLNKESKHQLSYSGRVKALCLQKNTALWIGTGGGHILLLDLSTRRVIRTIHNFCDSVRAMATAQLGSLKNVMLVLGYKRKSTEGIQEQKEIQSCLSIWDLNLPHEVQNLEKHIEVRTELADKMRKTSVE

- binding result [1]: no binding (tested: not given)
- binding result [2]: no binding (tested: not given)
B1: Nb3 (CA12614) (VHH)
VHH: QVQLVESGGGLVQPGGSLRLSCAASGSIFRRNAMGWYRQVTGKERELVAGITSGGYTNYRDFVKGRFTISRDNAKNTVYLQMNNLKPEDTAVYYCNLLSEMLQTVWGQGTQVTVSS

- binding result [3]: no binding (tested: not given)
- binding result [2]: no binding (tested: not given)
- binding result [4]: no binding (tested: not given)
B2: Nb35 (CA16072) (VHH)
VHH: QVQLVESGGGLVQPGGSLRLSCAASGFPFSTYYMSWVRQAPGKGLEWVSAISPGGDTAYADSVKDRFTISRDSAKNTVYLQMSSLKPEDTAVYYCAAVRFLRAPDLTEKRLYEYWGQGTQVTVSS

- binding result [1]: no binding (tested: not given)
- binding result [3]: no binding (tested: not given)
- binding result [4]: no binding (tested: not given)
- Kd [5]: 0.145 µM
- Kd [6]: 0.076 µM
B3: Nb22 (CA13611) (VHH)
VHH: QVQLVESGGGLVQAGGSLRLSCAASGRTFSSYTMGWFRQAPGKEREFVAAIRWSGGSTYYADSVKGRFTISRDNAKNTVYLQMNSLKPEDTAVYYCAASDRGGFIATSGGWMDYWGKGTQVTVSS

- binding result [7]: binds
B4: Nb22 (CA13611)-GFP fusion (VHH)
VHH: B3 VHH
notes: expressed in cells as intrabody; also called GFP-Nb22; fluobody Nb22; not shown: enhanced GFP fused to the C-terminus of the Nb (pEGFP-N1)

- binding result [8]: no binding
- binding result [9]: no binding
- binding result [10]: no binding
- binding result [11]: no binding
B5: Nb37 (CA14131) (VHH)
VHH: QVQLVESGGGLVQPGGSLRLSCAASGSVFSTNTMAWFRQAPGKQREWVGGITPGGFTNYINSVKGRFTISRDNANNTIYLQMSSLRPEDTAVYYCNTLSRMALWGQGTQVTVSS

- Kd [5]: 0.067 µM
- Kd [6]: 0.011 µM
- binding result [8]: no binding
- binding result [9]: no binding
- binding result [10]: no binding
- binding result [11]: no binding
B6: Nb17 (CA13606) (VHH)
VHH: QVQLVESGGGLVQPGGSLRLSCAASGSNIGYMAWYRQAPGSQRELVARIASGGSANYADSVKGRFTISRDNVKNTVYLHMNSLKPVDTAVYYCHADAWYNSRWSDYWGQGTQVTVSS

- Kd [5]: 0.078 µM
- Kd [6]: 0.051 µM
- binding result [8]: no binding
- binding result [9]: no binding
- binding result [10]: no binding
- binding result [11]: no binding
B7: Nb36 (CA14130) (VHH)
VHH: QVQLVESGGGLVQPGGSLRLSCAASGSIRSITTSAWFRQPPGKQRELVAGISSGTSTNYADSVKGRFTISRDNAKNTVYLQMNSLKPEDTAVYYCHVWISGTWYSGQGTQVTVSS

- Kd [5]: 0.048 µM
- Kd [6]: 0.086 µM
- binding result [8]: no binding
- binding result [9]: no binding
- binding result [10]: no binding
- binding result [11]: no binding
B8: Nb38 (CA14133) (VHH)
VHH: B7 VHH with T32A, F37Y, S56T, V97A, Y104I

- Kd [5]: 0.079 µM
- Kd [6]: 0.021 µM
- binding result [8]: no binding
- binding result [9]: no binding
- binding result [10]: no binding
- binding result [11]: no binding
B9: Nb39 (CA14134) (VHH)
VHH: QVQLVESGGGLVQAGGSLRLSCRASGGTFSTYAMGWFRQVPGKERETVAAVKWSGDMTYYADSVKGRFTISRDNAKNTVYLQMNSLRPEDTAVYYCAARRGLSYYRGPSEYDYWGQGTQVTVSS
